# Data taken from a protein production outcome set (Wang et al. 2014).
# Experiment: label from the status in PepcDB records
row,Sequence,protein production
1,MPFGLKSSQSIDDKFMSITQMKNLIHYVKKNDALSHLCIYILIITGSRFKPVQHLRYEDLNFKKSCIHLNDTKNKYSKRNVKVRIKDLEYIQSVINKHPINQNGYIFHNFINFISYSAINDVLVRFCLKYKYDKYTLKSLRHTHCSYLLAKGISIQYISKRLGHADIHTTLKIYSHLIKEFEDSENSLIEKNLNDLFSDLEHHHHHH,not failed
2,MGYSRSREIRRWEMRKMKAAGLSVEEAYSDEEGGLVPDLVYKESSSEFLGNKVFDPVLRNKIEIEKPGTEISAVAKRGSVFLSVHPRSYVAPSASGEVDREVSQRLPIESFRDDLMEFVGKHRVIVLVGETGSGKSTQVPKYLYQEGYGDKGIIGCTQPRRAAAISLASTLKREMGCAVGYSIRFDSTTTQDTKIRYMTEGILLQELLADKMLRRYSVVILDEAHERTTNLDISMGLLKLALKERDDLRIIIMSATIEAQKLCNYFGCPAFNIEGRSYPVETRYLSVNVDDYVEWTVKKILYIHENCGEGDILVFVTGRDDVEGVVGIVNHCIRNKCFGEGSEGGRGLKVLPFYSQLPEEMQNRVFQAEKDVRKCIVSTNVAETSLTIPNIGYVIDTGLQKISVYSYDTGESLVTVPISRANADQRTGRAGRTRPGVCYRMYTADTYENDMLPSPVPEIQRTNIHNVVLLLLKHGVHDILGFDFVDRPSEELIQGALLGLHRLGAVCSRGLLTKVGKEMSELRLDPPLARMVLGAAGYGAVNEIASIASMLSVHEVFHRDFDKSSPLCHQGCDFLTLLNIFNAFIRQKNRSEWCNKMKVSEHALKRATETKRAVLMSLREMGVPISSTRSLDKIQRCIISSVHYNVARRRGKGYVCLSNFRACMVHPSSVLADSYSQYIIFYKHLSTRAEYMYCCSNISPQVILEEAGCYYRDRNGVFNIQKHPVIEDGLDREHNPFGSACSLTGARMPGKIALDENLYDRFEKWNESEESDEEPPKKIRRTRI,failed
3,MSSEAVDATTLVIIPTYNELENLPLIVDRVRTATPDVHVLIVDDNSPDGTGERADKLAADDDHIFVLHREGKGGLCAAYMAGFQWGLERDYQVLCEMDADGSHAPEQLHLLLAEITNGADLVIGSRYVPGGRVVNWPKNRWLLSKGGNVYISVALGAGLTDMTAGYRAFRREVLEALPLDELSNAGYIFQVEIAYRAVEAGFDVREVPITFTEREIGESKLDGSFVKDSLLEVTKWGLKHRGGQAKELSKEMVGLLNYEWKHFKKRNTWLLEHHHHHH,failed
4,MITTIPWKATQAQPNAFPERQALMPVWEGEAIPQAEWQQCWQQAAINVLKEDGLAYFHIPFCASHCIFCGFYRNAWKEDYSKVYTDKLIEELAYEASIRQGNGKIQAVYFGGGTPTALATEDLVRLIKACYQYLPLATDCEFTLEGRISHFDIEKARACVEAGVNRISIGVQTFNSAIRKRLGRKHSGEEAYAYLQALCELDAVIVADLIFGLPNQTDEVWANDINVASGLPLSGLDIYAFNNYPFLPINKMIEHGTLPPAASFEVQAQHYAYAVENLQQAGWTQVSNNHFAFPGRGERNRYNTLVKSNMPCLAFGSGAGGNFSGYSFQVDTTLQTYLDTPADKKALSYLSKQGPNKQLLGIVQHDLELGYLDIKLFRDNPKAMKLLMQWQQLSLLNIDANGIACLNISGRYWSPTLIRKLMLTLPTHDEKEHKMVKLSEQQLAELRQSLAENPGQILEMVAGMKQCSFEEVISCLPQEMITKTDGSRFVEIMQALATLEDAVTFIAHTADAIVEVTGKLPSGQIGRGFYNFDHTHEGGVHGHLRYENCAAIYLLERPFMGKHTVSLNFVNHQGGAMFKIFVGRDAERNLRQNQIDFMRQLIKG,failed
5,METRANYVIVGIFTLVAILAAFGFVYWTAAIGDRGETTLLRVRIPGSASGLGRGSFVLFNGVKVGDVKRVYIDVDNPTVAIADTEIDRLTPITKSTQADIGLAGLTGQANIELKGADPKEVKLLDQAEKEGKVAEIVANPSAVTNLLQTAQNIFSRADKVLSELEGFTRDVRGPLTQTVQNVQTFSDALAKNSDGIDKFLSSVSALSEELKGVSGKLDGTLKAAEGLLNAVDRDKIKSIVANVDTVTANLKQTSQQLDGVIKNVDTAVGSVNDFAKQTQGTLAKVDGVLDGVDPAQVRAALANIQKASENANKAAADIAVVTEKFANRADDIDQTIKDAKQLAQRLNDASVRVDGILARVDTLLGSGQADGLMADARDTLKSFKQVADTLNARLGVITDNLARFSGQGLSNVEALVQDSRRSITRIEEAVTDLSRNPQRILSGGDGEVRQFDGRARR,failed
6,MAYFYLAEAGDWSFRTVWHDRFFTVLKHHPARTEKVEQADYIFLDADFALETNWPYYGSQRKAILKGDRFPTDEEILAFLFDHPVSGYGKPLVLINMNPLAQWPAIAQVLPDVVVVSHCHTLGNYRVGIDVSFPPMPLLDQHCYPSRDRSTLLSFRGANSHPVREQLQRLHQPPEIAAELIQQSYWGTLNYVDEAEGLSAEQQVYTDLIARSRFSVAPRGHDIFSYRLLEVMAGGAIPVILADDWVLPFSELLDWSEFSLSVAEDRCWELPQLLQAISTDQWQVMQQHLQQVYQHYFYSLARQVQTLWQILDQRSLHPSASEVEIEAVLLSQAERYRLKGDLEAAATYLATLPRSPARILEQARLALTQQQPKAALALLDSMVMPEAEQGEHYNLLGVAQTQLGEWDTAIAIYRQGLQAQPHHPKLRTNLCVALRQQEQWEEALALSQALLEEVPAAIDRLLLQADTLNLAGRYDQALSLYQQVVAREPERANAQLAIAEILLRQGKAEGWDIYEARFAAEPSLAALAAHYPQPRWQGVELGQRSLLVWGEQGYGDQIQFSRYLWVLRDRYPQARIQFQTDAVLVPLFAEPLASLGIKVIPAQITEELFDFQVPLLSLPRLVWPSLKDIPYREGWLPCPLPPPREDQNHKFRVGIVWLAGQRAGIQKSATADRRSCSLEAMLELVRESMQRSDLEVVSLQLGYEGRLPEGIQDWSNRLVDFSATARVLMELDLLVTVDTAIVHLAGAMGTPAKVLLAYPPDWRWQQNLELTWYSSIELCYFAHLLSSF,failed
7,MIESAVGKAAYSTAAFLIKSLPVVVIAIYAVSYSIKKGYLERFALFLQPALRKFGVSEFAVISFATCFVSPTASYSMLSQAWREKKVDDREVIAISFLNSFPSVFSHLYAYFIPFVIPVLGFAGVVYTAVRFAVAAIKSLIGLLLSRSRKNSDTSAPELSPLSVSQNVVRIGAVMAATYFIVSLLSQLGVFDLMAESLKFLPFRAEAVTIAIVEFFNIRSAVVTAASFIDAGLEWKWAVIGLILGNVISFSTRSVKHSLPMHLSLFGGFGVKIVLLNSIVTLILDIFFVVLLLLV,failed
8,SSEANSNSEFQTFIEQENQKAAIQAAISKLTETCWDKCVGKPGSKLDRAESECIANCAERFLDSSSFIMQRLMKKQ,not failed
9,MQTINTHPVQPLKLDSEVQRQMNFQFLTAMKAFFTLLTTEDNIDAVDELSSILIHSRAFELAAESMQTDPEVAHLIKERYYAPVHDVEQLLQYPADSLGYLYASTLKESGFERIDPEIIVNSDTAYIEHRWQQTHDIWHLVTGFSASGIDEIGLQAFYLAQFRLPLASMLIANALMSATLLAPEDLPQLLQTIERGWTMGLQAKPLFAQKWEEAWEKPLSQWRDELNIQAFS,failed
10,SSTHGSRFPLCGGRRDHKGLTHIFNPPPKRFESILEGLFGPALLKDLSLFKDCEPESISDWTFDENCLFCCLRRDKVKGHLVGLDEPASGAGQEALLKQEQAKIIRFERQAEEFLNAVFYRKDSPWVSDPNIPLVAREIMQRMIQQFAAEYTSKNSSTQDPSQPNSTKNQSLPKASPVTTSPTAATTQNPVLSKLLMADQDSPLDLTVRKSQSEPSEQDGVLDLSTKKSPCAGSTSLSHSPGCSSTQGNGRPGRPSQYRPDGLRSGDGVPPRSLQDGTREGFGHSTSLKVPLARSLQISEELLSRNQLSTAASLGPSGLQNHGQHLILSREASWAKPHYEFNLSRMKFRGNGALSNISDLPFLAENSAFPKMALQAKQDGKKDVSHSSPVDLKIPQVRGMDLSWESRTGDQYSYSSLVMGSQTESALSKKLRAILPKQSRKSMLDAGPDSWGSDAEQSTSGQPYPTSDQEGDPGSKQPRKKRGRYRQYNSEILEEAISVVMSGKMSVSKAQSIYGIPHSTLEYKVKERLGTLKNPPKKKMKLMRSEGPDVSVKIELDPQGEAAQSANESKNE,not failed
11,MTILVEHFVPDSRVDEKKVIEERDNELVLDGGFVVPKSKETDAFDAPDMNFLGHSFRDYENGESERQQGVEEFYRMQHIHQTYDFVKKMRKEYGKLNKMEMSIWECCELLNNVVDESDPDLDEPQIQHLLQTAEAIRRDYPDEDWLHLTALIHDLGKVLLLPEFGGLPQWAVVGDTFPVGCTFDSANIHHKYFKGNHDINNPKYNTKNGVYTEGCGLDNVLMSWGHDDYMYLVAKKNGTTLPHAGLFIIRYHSFYPLHKAGAYTHLMNDEDRDDLKWLHVFNKYDLYSKSKVLVDVEQVKPYYISLINKYFPAKLKW,failed
12,RTDRTALIDLMQALNQHMTYTQGATEVDTSAAQAFAGRSGVCQDHTHAFLACARSLGVPARYVSGYLCSEDSEHLSSHAWAEAWIDDAWYSFDVTNQLAIPERHLKLAVGLDYLDACPVRGMRRG,failed
13,MCNETWQSRAEEYIDDSRRLGYALTTTSAYLLSFARFVDQRGHSGALTSDIILDWAQSTDSKKPTTWTKRLINIRRFISHCSRVDGKSEVPRVDVFGRPKGRPTPHIYTELEISELLAAARELPGTLPSATYETLFGLLASTGLRLSEALHLRCSDVDLRSGRLIVRQGKLGKSRLVPLHATVCEVLSRYLGVRQQLPLTSESYFFVSQTGGLLPRRTVEGVFIRLRTKLGWAPRGNWRAPRIHDLRHTFICRRVTQWHKEGADIDNAMLYVSTYVGHVAVTYTYWYLTGIPELMTVVGQRFEAFAESARGAENAE,failed
14,MYGGAGLYKFDKLSDWMVYLDRLSKDKPVEEGWTATVFLCIRQSDKRMIGICNVRHHLNSLGLLNVSGHIGYSIRPDERKKGYAKVQLRLALLEAKKLGIDKVLVTCADWNIGSERTILANGGVYEDSRLDESTGNMMKRYWINVTERNSI,failed
15,MQVNIILLAAGKGQRFQSSSPNKIGCATIKQLARINDKPLIVHSIDKLQPLLKNAYVHNFFVTLGANKNAIQTVLPQDISVIASQHWAEGMGHTLAESVHSIKATSSHVLVALADQALITTEHYQELLSASKEQPNKIIATLCEGQLMAPAIFPEKYFPLLVKIQGDKGAGKLLLQHAKKADAITCEDAKIDIDTFSDLERVRQHLEYALQDNQQSSL,failed
16,MEVTNGLNLKDTELRLGLPGAQEEQQLELSCVRSNNKRKNNDSTEESAPPPAKTQIVGWPPVRSNRKNNNNKNVSYVKVSMDGAPYLRKIDLKMYKNYPELLKALENMFKFTVGEYSEREGYKGSGFVPTYEDKDGDWMLVGDVPWDMFSSSCQKLRIMKGSEAPTAL,not failed
17,MPAQQAEQAANLGLAGFQFLAQGVFAALLLQLHAFEFGARLTADLPLALLVGMLGAEGLFGLARAVFAHPLGGRLGLAARLGPGFAGFHERLYLRNVTQSE,failed
18,SRGPEPGPQPTMEGDVLDTLEALGYKGPLLEEQALTKAAEGGLSSPEFSELCIWLGSQIKSLCNLEESITSAGRDDLESFQLEISGFLKEMACPYSVLISGDIKDRLKKKEDCLKLLLFLSTELQASQILQNKKHKNSQLDKNSEVYQEVQAMFDTLGIPKSTTSDIPHMLNQVESKVKDILSKVQKNHVGKPLLKMDLNSEQAEQLERINDALSCEYECRRRMLMKRLDVTVQSFGWSDRAKVKTDDIARIYQPKRYALSPKTTITMAHLLAAREDLSKIIRTSSGTSREKTACAINKVGVSFSTVENELMISYLMFLQILVYFSFMSW,not failed
19,MTTPPARTAKQRIQDTLNRLELDVDAWVSTAGADGGAPYLVPLSYLWDGETFLVATPAASPTGRNLSETGRVRLGIGPTRDLVLVEGTALPLEPAGLPDGVGDTFAEKTGFDPRRLTTSYLYFRISPRRVQAWREANELSGRELMRDGEWLVTD,not failed
